T1: TAF4 (human (endogenous in HeLa), UniProt O00268 1-1085)
T1 sequence (looked up): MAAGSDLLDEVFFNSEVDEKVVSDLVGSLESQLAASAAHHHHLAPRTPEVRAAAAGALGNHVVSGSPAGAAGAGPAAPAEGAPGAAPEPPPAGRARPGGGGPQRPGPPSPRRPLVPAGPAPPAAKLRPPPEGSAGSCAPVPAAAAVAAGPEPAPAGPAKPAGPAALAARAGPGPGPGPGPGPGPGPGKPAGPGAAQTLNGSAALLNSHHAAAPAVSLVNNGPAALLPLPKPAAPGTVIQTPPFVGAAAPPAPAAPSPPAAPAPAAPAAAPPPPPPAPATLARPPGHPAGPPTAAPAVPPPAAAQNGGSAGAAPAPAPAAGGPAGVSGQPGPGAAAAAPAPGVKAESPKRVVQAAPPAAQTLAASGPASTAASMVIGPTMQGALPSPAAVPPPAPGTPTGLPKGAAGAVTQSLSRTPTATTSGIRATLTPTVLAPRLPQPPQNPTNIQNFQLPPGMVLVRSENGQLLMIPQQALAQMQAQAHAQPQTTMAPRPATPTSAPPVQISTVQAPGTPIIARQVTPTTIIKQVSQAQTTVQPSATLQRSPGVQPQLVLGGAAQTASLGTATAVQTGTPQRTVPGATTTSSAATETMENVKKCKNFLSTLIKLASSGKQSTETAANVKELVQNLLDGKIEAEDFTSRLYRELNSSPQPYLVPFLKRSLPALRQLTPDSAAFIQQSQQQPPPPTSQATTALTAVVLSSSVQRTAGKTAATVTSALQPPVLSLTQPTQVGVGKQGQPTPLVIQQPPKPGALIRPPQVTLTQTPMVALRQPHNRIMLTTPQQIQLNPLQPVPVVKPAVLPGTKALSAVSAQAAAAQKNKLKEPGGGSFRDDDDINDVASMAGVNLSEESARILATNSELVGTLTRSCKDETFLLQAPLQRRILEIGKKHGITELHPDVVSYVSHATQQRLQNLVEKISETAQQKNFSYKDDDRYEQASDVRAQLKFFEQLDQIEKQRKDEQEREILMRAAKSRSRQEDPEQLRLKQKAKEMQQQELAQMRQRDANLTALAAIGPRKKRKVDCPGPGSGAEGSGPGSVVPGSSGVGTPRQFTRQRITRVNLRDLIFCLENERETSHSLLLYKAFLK

T2: TAF2 (human (endogenous in HeLa), UniProt Q6P1X5 1-1199)
T2 sequence (looked up): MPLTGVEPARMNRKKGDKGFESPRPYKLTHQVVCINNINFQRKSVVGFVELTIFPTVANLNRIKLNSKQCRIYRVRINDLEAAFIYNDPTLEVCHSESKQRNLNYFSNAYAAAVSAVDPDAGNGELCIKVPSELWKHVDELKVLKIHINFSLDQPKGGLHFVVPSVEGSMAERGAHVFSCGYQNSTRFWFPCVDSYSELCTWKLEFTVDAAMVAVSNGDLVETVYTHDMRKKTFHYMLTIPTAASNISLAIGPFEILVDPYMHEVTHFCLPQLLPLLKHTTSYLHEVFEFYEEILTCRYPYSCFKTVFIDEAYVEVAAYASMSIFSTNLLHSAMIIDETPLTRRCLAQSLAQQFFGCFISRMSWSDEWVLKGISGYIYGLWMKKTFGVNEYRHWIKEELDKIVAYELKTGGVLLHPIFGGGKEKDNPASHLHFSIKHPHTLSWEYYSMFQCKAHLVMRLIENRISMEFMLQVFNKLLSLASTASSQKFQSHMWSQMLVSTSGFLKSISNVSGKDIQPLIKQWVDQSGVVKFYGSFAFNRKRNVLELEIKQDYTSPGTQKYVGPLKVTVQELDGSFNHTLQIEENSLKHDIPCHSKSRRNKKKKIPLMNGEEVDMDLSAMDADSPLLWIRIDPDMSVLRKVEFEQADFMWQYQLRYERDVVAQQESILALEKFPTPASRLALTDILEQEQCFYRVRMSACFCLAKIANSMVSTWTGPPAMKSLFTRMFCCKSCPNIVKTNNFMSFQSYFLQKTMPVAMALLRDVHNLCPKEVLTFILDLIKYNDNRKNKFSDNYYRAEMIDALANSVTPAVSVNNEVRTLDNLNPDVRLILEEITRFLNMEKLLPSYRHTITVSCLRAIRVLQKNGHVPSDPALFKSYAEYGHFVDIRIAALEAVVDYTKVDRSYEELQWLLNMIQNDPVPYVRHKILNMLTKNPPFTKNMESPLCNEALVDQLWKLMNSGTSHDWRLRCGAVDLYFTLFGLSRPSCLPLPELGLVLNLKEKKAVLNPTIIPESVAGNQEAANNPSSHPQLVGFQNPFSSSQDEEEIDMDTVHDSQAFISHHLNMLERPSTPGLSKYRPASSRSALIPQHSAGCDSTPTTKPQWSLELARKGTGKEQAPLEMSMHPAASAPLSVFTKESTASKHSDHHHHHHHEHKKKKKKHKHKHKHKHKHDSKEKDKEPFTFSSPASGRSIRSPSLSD

B1: TAF12 (natural protein, human (endogenous in HeLa), UniProt Q16514 1-161, looked up)
chain: MNQFGPSALINLSNFSSIKPEPASTPPQGSMANSTAVVKIPGTPGAGGRLSPENNQVLTKKKLQDLVREVDPNEQLDEDVEEMLLQIADDFIESVVTAACQLARHRKSSTLEVKDVQLHLERQWNMWIPGFGSEEIRPYKKACTTEAHKQRMALIRKTTKK
B2: TAF6 (natural protein)
chain: not shown
B3: TAF8 (natural protein, human (endogenous in HeLa), UniProt Q7Z7C8 1-310, looked up)
chain: MADAAATAGAGGSGTRSGSKQSTNPADNYHLARRRTLQVVVSSLLTEAGFESAEKASVETLTEMLQSYISEIGRSAKSYCEHTARTQPTLSDIVVTLVEMGFNVDTLPAYAKRSQRMVITAPPVTNQPVTPKALTAGQNRPHPPHIPSHFPEFPDPHTYIKTPTYREPVSDYQVLREKAASQRRDVERALTRFMAKTGETQSLFKDDVSTFPLIAARPFTIPYLTALLPSELEMQQMEETDSSEQDEQTDTENLALHISMEDSGAEKENTSVLQQNPSLSGSRNGEENIIDNPYLRPVKKPKIRRKKSLS
B4: TAF5 (natural protein, human (endogenous in HeLa), UniProt Q15542 1-800, looked up)
chain: MAALAEEQTEVAVKLEPEGPPTLLPPQAGDGAGEGSGGTTNNGPNGGGGNVAASSSTGGDGGTPKPTVAVSAAAPAGAAPVPAAAPDAGAPHDRQTLLAVLQFLRQSKLREAEEALRREAGLLEEAVAGSGAPGEVDSAGAEVTSALLSRVTASAPGPAAPDPPGTGASGATVVSGSASGPAAPGKVGSVAVEDQPDVSAVLSAYNQQGDPTMYEEYYSGLKHFIECSLDCHRAELSQLFYPLFVHMYLELVYNQHENEAKSFFEKFHGDQECYYQDDLRVLSSLTKKEHMKGNETMLDFRTSKFVLRISRDSYQLLKRHLQEKQNNQIWNIVQEHLYIDIFDGMPRSKQQIDAMVGSLAGEAKREANKSKVFFGLLKEPEIEVPLDDEDEEGENEEGKPKKKKPKKDSIGSKSKKQDPNAPPQNRIPLPELKDSDKLDKIMNMKETTKRVRLGPDCLPSICFYTFLNAYQGLTAVDVTDDSSLIAGGFADSTVRVWSVTPKKLRSVKQASDLSLIDKESDDVLERIMDEKTASELKILYGHSGPVYGASFSPDRNYLLSSSEDGTVRLWSLQTFTCLVGYKGHNYPVWDTQFSPYGYYFVSGGHDRVARLWATDHYQPLRIFAGHLADVNCTRFHPNSNYVATGSADRTVRLWDVLNGNCVRIFTGHKGPIHSLTFSPNGRFLATGATDGRVLLWDIGHGLMVGELKGHTDTVCSLRFSRDGEILASGSMDNTVRLWDAIKAFEDLETDDFTTATGHINLPENSQELLLGTYMTKSTPVVHLHFTRRNLVLAAGAYSPQ
B5: TAF9 (natural protein, human (endogenous in HeLa), UniProt Q16594 1-264, looked up)
chain: MESGKTASPKSMPKDAQMMAQILKDMGITEYEPRVINQMLEFAFRYVTTILDDAKIYSSHAKKATVDADDVRLAIQCRADQSFTSPPPRDFLLDIARQRNQTPLPLIKPYSGPRLPPDRYCLTAPNYRLKSLQKKASTSAGRITVPRLSVGSVTSRPSTPTLGTPTPQTMSVSTKVGTPMSLTGQRFTVQMPTSQSPAVKASIPATSAVQNVLINPSLIGSKNILITTNMMSSQNTANESSNALKRKREDDDDDDDDDDDYDNL

What all share (assay): cryo-EM structure
The target of one data set is T1, TAF4.
The data set “cryo-EM structure” concerns the molecule itself.
The data set “TAF6” addresses B2.
The data set “TAF5” concerns the target B4.
The target of another data set is T2, TAF2.

Sequence of TAF6 (P49848 whole entry): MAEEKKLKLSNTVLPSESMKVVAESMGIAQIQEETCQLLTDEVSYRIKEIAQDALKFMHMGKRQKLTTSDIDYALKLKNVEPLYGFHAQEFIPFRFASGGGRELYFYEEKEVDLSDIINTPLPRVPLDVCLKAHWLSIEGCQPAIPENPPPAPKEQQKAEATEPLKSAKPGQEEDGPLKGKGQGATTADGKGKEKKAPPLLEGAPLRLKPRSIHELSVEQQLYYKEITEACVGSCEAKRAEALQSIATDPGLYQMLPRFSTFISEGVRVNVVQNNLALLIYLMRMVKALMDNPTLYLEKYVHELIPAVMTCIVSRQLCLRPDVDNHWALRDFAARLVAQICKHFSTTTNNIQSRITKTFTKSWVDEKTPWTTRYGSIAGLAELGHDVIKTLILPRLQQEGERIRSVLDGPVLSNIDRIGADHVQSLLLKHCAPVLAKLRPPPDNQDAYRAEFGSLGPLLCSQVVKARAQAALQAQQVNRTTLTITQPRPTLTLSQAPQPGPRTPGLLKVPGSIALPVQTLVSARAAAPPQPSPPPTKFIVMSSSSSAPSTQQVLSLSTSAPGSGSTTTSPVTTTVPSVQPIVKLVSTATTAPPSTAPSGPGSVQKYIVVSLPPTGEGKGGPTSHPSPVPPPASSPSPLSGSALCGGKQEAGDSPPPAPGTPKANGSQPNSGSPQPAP

On to B1, for which the binding result with TAF4 is “binds”.
Turning to B2, the “stoichiometry N” value in the data set “cryo-EM structure” came out at 2.
On to B3, for which the binding result with TAF6, with TAF5 and with TAF2 was “binds” each time.
In the case of B4, the binding result in the data set with TAF4 is on record as “binds”.
As for B5, the binding result with TAF6 and in the data set with TAF5 was “binds” in each case.

(Values after publication PMC6446905 (Science (New York, N.Y.), 2018).)
